Consider four molecules from paper PMC8081927 (The Journal of Biological Chemistry, 2021).

“And” between values parts separate entries of the source, which are not always exact repeats. Equal values may be shown once.

Test [1] has as its target T1, Aβ11-42 fibrils (Homo sapiens (species , …, UniProt P05067)).
T1 construct: amyloid beta peptide with N-terminal deletion, Aβ11-42; Amyloid fibrils; source: synthetic peptide, bought: Anaspec; assembled into fibrils, purified by ultracentrifugation
T1 chain: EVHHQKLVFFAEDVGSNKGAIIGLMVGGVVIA
The test is described as follows: far-Western, overlay or dot blot; immunodot blot: fibrils of Aβ1-42 and N-terminal truncations spotted on nitrocellulose at equal Thioflavin T fluorescence; antibodies at 10 nM in PBST with 1% milk; anti-human Fc HRP, 3 min exposure. The settings on record: both partners purified.

Test [2] concerns the target T2, Aβ2-42 fibrils (Homo sapiens (species , …, UniProt P05067)).
T2 construct: amyloid beta peptide with N-terminal deletion, Aβ2-42; Amyloid fibrils; also called fibrils without the first residue; source: synthetic peptide, bought: Bachem; assembled into fibrils, purified by ultracentrifugation
The test is described as above. The following applies: both partners purified.

For test [3], the target named is T3, Aβ4-42 fibrils (Homo sapiens (species , …, UniProt P05067)).
T3 construct: amyloid beta peptide with N-terminal deletion, Aβ4-42; Amyloid fibrils; source: synthetic peptide, bought: Bachem; assembled into fibrils, purified by ultracentrifugation
The description is as above. The settings on record: both partners purified.

Test [4] has as its target T4, Aβ5-42 fibrils (Homo sapiens (species , …, UniProt P05067)).
T4 construct: amyloid beta peptide with N-terminal deletion, Aβ5-42; Amyloid fibrils; source: synthetic peptide, bought: Bachem; assembled into fibrils, purified by ultracentrifugation
The test is described as above. The following applies: both partners purified.

The target of test [5] is T5, Aβ3-42 fibrils (Homo sapiens (species , …, UniProt P05067)).
T5 construct: amyloid beta peptide with N-terminal deletion, Aβ3-42; Amyloid fibrils; also called fibrils without the first two residues; source: synthetic peptide, bought: Bachem; assembled into fibrils, purified by ultracentrifugation
The test is described as above. The settings on record: both partners purified.

The target of test [6] is T6, Aβ1-42 fibrils (Homo sapiens (species , …, UniProt P05067, biotin on 1% of the peptides in the fibrils for the bead assays; unlabeled fibrils on the blots).
T6 construct: amyloid beta peptide 1-42 (Aβ1-42), cut product of the amyloid precursor protein; also called Aβ fibrils; Aβ42 fibrils; source: synthetic peptide, bought: Anaspec; assembled into fibrils at 37 °C with 10% fibril seeds, purified by ultracentrifugation
The test is described as follows: flow cytometry on beads; Aβ fibrils (1% biotinylated, 1 μM) immobilised on streptavidin Dynabeads, blocked with 10% milk; antibody dilutions in PBSB with 1% milk, 3 h, 25 °C; detected with goat anti-human Fc AF647; apparent affinity (EC50). The settings on record: both partners purified. (In flow cytometry, cells or beads pass a laser one at a time.)

For test [7], the target named is T7, Aβ aggregates formed in vivo in 5xFAD transgenic mouse brain (human).
T7 construct: Aβ derived from human amyloid precursor protein (APP) expressed in 5xFAD mice; the APP transgene carries the Swedish (K670N/M671L), Florida (I716V) and London (V717I) mutations; The target stands in a brain homogenate or tissue section, not as a pure peptide; also called 5xFAD samples; Aβ plaques
The test is described as follows: far-Western, overlay or dot blot; immunodot blot: brain extracts (7 μg total protein) of 5xFAD and wild-type mice spotted on nitrocellulose; antibodies at 50 nM in TBST with 1% milk, overnight, 4 °C. The settings on record: one partner purified.

For test [8], the target named is T8, disaggregated Aβ1-42 (Homo sapiens (species , …, UniProt P05067)).
T8 construct: amyloid beta peptide 1-42 (Aβ1-42), cut product of the amyloid precursor protein; also called disaggregated (D) Aβ; disaggregated Aβ42; source: synthetic peptide, bought: Anaspec; dissolved in HFIP, then 50 mM NaOH, ultracentrifuged, neutralised
The test is described as follows: far-Western, overlay or dot blot; immunodot blot: disaggregated Aβ and fibrils of Aβ, IAPP and α-synuclein spotted on nitrocellulose; antibodies at 10 nM in PBST with 1% milk, room temperature, 3 h; anti-human Fc HRP, X-ray film, 30 s or 45 min exposure. The settings on record: both partners purified.

Test [9] has as its target T6, Aβ1-42 fibrils. Described as above. The settings on record: both partners purified.

B1: crenezumab (variable domains grafted onto an IgG1 scaffold with a human Fc fragment) (antibody, V domains shown)
VH: EVQLVESGGGLVQPGGSLRLSCAASGFTFSSYGMSWVRQAPGKGLELVASINSNGGSTYYPDSVKGRFTISRDNAKNSLYLQMNSLRAEDTAVYYCASGDYWGQGTTVTVSS
VL: DIVMTQSPLSLPVTPGEPASISCRSSQSLVYSNGDTYLHWYLQKPGQSPQLLIYKVSNRFSGVPDRFSGSGSGTDFTLKISRVEAEDVGVYYCSQSTHVPWTFGQGTKVEIK
notes: heavy-chain variable domain of crenezumab; light-chain variable domain of crenezumab; IgG1 here; source: HEK293-6E expression plasmids, transfected cells, purified from the medium (Protein A)
Regarding B1, the binding result in test [1], in test [2], in test [3], in test [4] and in [5] was “binds” throughout.

B2: AF1 (scFv, V domains shown)
VH: EVQLVESGGGLVQPGGSLRLSCAASGFNIKDTYIHWVRQAPGKGLEWVARIYPTNGYTRYADSVKGRFTISADTSKNTAYLQMNSLRAEDTAVYYCARDGYDGSYFVGYDYNDFYDYWGQGTLVTVSS
VL: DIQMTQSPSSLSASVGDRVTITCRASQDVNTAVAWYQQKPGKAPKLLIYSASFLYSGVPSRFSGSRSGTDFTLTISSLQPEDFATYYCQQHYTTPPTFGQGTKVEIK
notes: scFv-Fc fusion protein; also called lead antibody; parental antibody; source: HEK293-6E expression plasmids, transfected cells, purified from the medium (Protein A)
In the case of B2, the EC50 in test [6] is 99 nM.

B3: clone 93 (scFv, V domains shown)
VH: EVQLVESGGGLVQPGGSLRLSCAASGFNIKDTYIHWVRQAPGKGLEWVARIYPSNGYTRYAGSVKGRFTISADTSKNTAYLQMNSLRAEDTAVYYCARDGYDGSYFVGYDYNDFYDYWGQGTLVTVSS
VL: DIQMTQSPSSLSASVGDRVTITCRASQNVYNAVTWYQQKPGKAPKLLIYSASFLYSGVPSRFSGSRSGTDFTLTISSLQPEDFATYYCQQHNTYPPTFGQGTKVEIK
notes: scFv-Fc fusion protein; source: HEK293-6E expression plasmids, transfected cells, purified from the medium (Protein A)
For the molecule B3, the binding result in test [7], in test [8] and in test [9] was “binds” each time.

B4: clone 97 (scFv, V domains shown)
VH: EVQLVESGGGLVQPGGSLRLSCAASGFNIKDTYIHWVRQAPGKGLEWVARIYPASGATRYADSVKGRFTISADTSKNTAYLQMNSLRAEDTAVYYCARDGYDGSYFVGYDYNDFYDYWGQGTLVTVSS
VL: DIQMTQSPSSLSASVGDRVTITCRASQNVAYAVTWYQQKPGKAPKLLIYSASFLYSGVPSRFSGSRSGTDFTLTISSLQPEDFATYYCQQHSTYPPTFGQGTKVEIK
notes: scFv-Fc fusion protein; Parent of 97A3; source: HEK293-6E expression plasmids, transfected cells, purified from the medium (Protein A)
For the molecule B4, the 50% effective concentration (EC50) in test [6] is 8 nM and 18 nM.

As usually defined, the EC50 is the concentration at which the effect is half-maximal.
